Reference: paper PMC12416549 (2024)
Changes are numbered by the printed parent chain. Numbers in names are those of the source.

B1: K64H (designed binder)
chain: SMEEEVEKAAKEYEKKKKEAIEKHLEKLKAKDKEAAERFLKELEEAAKEYAKDEAKTMSEEEAHRRAKKYKEKVLLSELSEEEQKEIKEAEEKLVRTILKYVEEAAK
B2: E61K (designed binder)
chain: B1 chain with E61K, H64K
B3: K68W (designed binder)
chain: B1 chain with H64K, K68W
B4: E5D (designed binder)
chain: B1 chain with E5D, H64K
B5: A35D (designed binder)
chain: B1 chain with A35D, H64K
B6: E34P (designed binder)
chain: B1 chain with E34P, H64K
B7: K41N (designed binder)
chain: B1 chain with K41N, H64K
B8: V6C (designed binder)
chain: B1 chain with V6C, H64K
B9: K48M (designed binder)
chain: B1 chain with K48M, H64K
B10: L25S (designed binder)
chain: B1 chain with L25S, H64K
B11: L28Y (designed binder)
chain: B1 chain with L28Y, H64K
B12: K31Y (designed binder)
chain: B1 chain with K31Y, H64K
B13: K93L (designed binder)
chain: B1 chain with H64K, K93L
B14: E45A (designed binder)
chain: B1 chain with E45A, H64K
B15: K100H (designed binder)
chain: B1 chain with H64K, K100H
B16: K64I (designed binder)
chain: B1 chain with H64I
B17: I21N (designed binder)
chain: B1 chain with I21N, H64K
B18: R96I (designed binder)
chain: B1 chain with H64K, R96I
B19: E62H (designed binder)
chain: B1 chain with E62H, H64K
B20: A30S (designed binder)
chain: B1 chain with A30S, H64K
B21: K71W (designed binder)
chain: B1 chain with H64K, K71W
B22: S77H (designed binder)
chain: B1 chain with H64K, S77H
B23: E49V (designed binder)
chain: B1 chain with E49V, H64K
B24: E34R (designed binder)
chain: B1 chain with E34R, H64K
B25: A30N (designed binder)
chain: B1 chain with A30N, H64K
B26: E61V (designed binder)
chain: B1 chain with E61V, H64K
B27: K48I (designed binder)
chain: B1 chain with K48I, H64K
B28: K64Q (designed binder)
chain: B1 chain with H64Q
B29: D32Q (designed binder)
chain: B1 chain with D32Q, H64K
B30: M58Y (designed binder)
chain: B1 chain with M58Y, H64K
B31: L79W (designed binder)
chain: B1 chain with H64K, L79W
B32: K31Q (designed binder)
chain: B1 chain with K31Q, H64K
B33: S1L (designed binder)
chain: B1 chain with S1L, H64K
B34: M2I (designed binder)
chain: B1 chain with M2I, H64K
B35: E22W (designed binder)
chain: B1 chain with E22W, H64K
B36: S80E (designed binder)
chain: B1 chain with H64K, S80E
B37: F39M (designed binder)
chain: B1 chain with F39M, H64K
B38: K71M (designed binder)
chain: B1 chain with H64K, K71M
B39: K68Y (designed binder)
chain: B1 chain with H64K, K68Y
B40: S1K (designed binder)
chain: B1 chain with S1K, H64K
B41: K64R (designed binder)
chain: B1 chain with H64R
B42: K88D (designed binder)
chain: B1 chain with H64K, K88D
B43: A46N (designed binder)
chain: B1 chain with A46N, H64K
B44: D32H (designed binder)
chain: B1 chain with D32H, H64K
B45: A20W (designed binder)
chain: B1 chain with A20W, H64K
B46: E45V (designed binder)
chain: B1 chain with E45V, H64K
B47: R65F (designed binder)
chain: B1 chain with H64K, R65F
B48: S59V (designed binder)
chain: B1 chain with S59V, H64K
B49: L28W (designed binder)
chain: B1 chain with L28W, H64K
B50: K93Y (designed binder)
chain: B1 chain with H64K, K93Y
B51: Q84V (designed binder)
chain: B1 chain with H64K, Q84V
B52: L40F (designed binder)
chain: B1 chain with L40F, H64K
B53: E83F (designed binder)
chain: B1 chain with H64K, E83F
B54: A63C (designed binder)
chain: B1 chain with A63C, H64K
B55: K107C (designed binder)
chain: B1 chain with H64K, K107C
B56: E83I (designed binder)
chain: B1 chain with H64K, E83I
B57: I87C (designed binder)
chain: B1 chain with H64K, I87C
B58: K33C (designed binder)
chain: B1 chain with K33C, H64K
B59: L76E (designed binder)
chain: B1 chain with H64K, L76E

Target: T1, TNFR1 (Homo sapiens, UniProt P19438)
T1 chain: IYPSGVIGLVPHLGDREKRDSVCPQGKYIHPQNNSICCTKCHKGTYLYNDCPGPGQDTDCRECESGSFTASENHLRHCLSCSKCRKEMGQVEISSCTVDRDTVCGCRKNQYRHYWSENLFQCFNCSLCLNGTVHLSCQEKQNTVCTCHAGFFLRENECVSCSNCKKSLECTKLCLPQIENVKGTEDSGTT
Test: yeast display SC50

| Binder | apparent Kd (screen) |
| --- | --- |
| B1 | 0.593 nM |
| B2 | 1.69 nM |
| B3 | 2.73 nM |
| B4 | 0.653 nM |
| B5 | 2.25 nM |
| B6 | 0.653 nM |
| B7 | 0.49 nM |
| B8 | 1.27 nM |
| B9 | 0.653 nM |
| B10 | 1.05 nM |
| B11 | 0.446 nM |
| B12 | 0.49 nM |
| B13 | 1.05 nM |
| B14 | 2.05 nM |
| B15 | 1.16 nM |
| B16 | 1.05 nM |
| B17 | 1.69 nM |
| B18 | 0.718 nM |
| B19 | 0.79 nM |
| B20 | 0.718 nM |

| Binder | apparent Kd (screen) |
| --- | --- |
| B21 | 4.39 nM |
| B22 | 0.49 nM |
| B23 | 10.4 nM |
| B24 | 0.446 nM |
| B25 | 0.79 nM |
| B26 | 1.16 nM |
| B27 | 0.49 nM |
| B28 | 0.446 nM |
| B29 | 1.16 nM |
| B30 | 24.4 nM |
| B31 | 6.43 nM |
| B32 | 1.16 nM |
| B33 | 1.4 nM |
| B34 | 1.27 nM |
| B35 | 0.593 nM |
| B36 | 5.84 nM |
| B37 | 3 nM |
| B38 | 3 nM |
| B39 | 3.99 nM |
| B40 | 0.446 nM |

| Binder | apparent Kd (screen) |
| --- | --- |
| B41 | 0.869 nM |
| B42 | 0.446 nM |
| B43 | 1.69 nM |
| B44 | 0.718 nM |
| B45 | 2.25 nM |
| B46 | 1.86 nM |
| B47 | 7.07 nM |
| B48 | 1.54 nM |
| B49 | 0.49 nM |
| B50 | 2.25 nM |
| B51 | 3 nM |
| B52 | 0.869 nM |
| B53 | 2.05 nM |
| B54 | 26.9 nM |
| B55 | 2.73 nM |
| B56 | 0.446 nM |
| B57 | 3.3 nM |
| B58 | 0.653 nM |
| B59 | 2.48 nM |
